Among the data in publication PMC7749410 are stoichiometry N values, retold here.

For assay [1], the target named is cc-del7 G37C (Saccharomyces cerevisiae | human). As to the kind of experiment: cross-linking.
Assay [2] addresses cc-del5 (cc-C99 23-99) (Saccharomyces cerevisiae | human). The assay can be described thus: native gel or EMSA.
Assay [3] addresses cc-del7 G29C (Saccharomyces cerevisiae | human). The assay can be described thus: cross-linking.
Assay [4] concerns the target cc-del9 G29C (Saccharomyces cerevisiae | human). As to the kind of experiment: cross-linking.
For assay [5], the target named is cc-del3 (cc-C99 21-99) (Saccharomyces cerevisiae | human). As to the kind of experiment: native gel or EMSA.
Assay [6] has as its target cc-del0 G29C (Saccharomyces cerevisiae | human). As to the kind of experiment: cross-linking.
The target in assay [7] is cc-del2 (cc-C99 20-99) (Saccharomyces cerevisiae | human). As to the kind of experiment: native gel or EMSA.
Assay [8] addresses cc-del2 G29C (Saccharomyces cerevisiae | human). As to the kind of experiment: cross-linking.
Assay [9] has as its target cc-del9 (cc-C99 27-99) (Saccharomyces cerevisiae | human). The assay can be described thus: native gel or EMSA.
Assay [10] concerns the target cc-del1 (cc-C99 19-99) (Saccharomyces cerevisiae | human). The assay can be described thus: native gel or EMSA.
In assay [11] the target is cc-del4 (cc-C99 22-99) (Saccharomyces cerevisiae | human). The assay can be described thus: native gel or EMSA.
For assay [12], the target named is cc-del6 (cc-C99 24-99) (Saccharomyces cerevisiae | human). The assay can be described thus: native gel or EMSA.
Assay [13] deals with cc-del4 G37C (Saccharomyces cerevisiae | human). As to the kind of experiment: cross-linking.
Assay [14] addresses cc-del7 (cc-C99 25-99) (Saccharomyces cerevisiae | human). The assay can be described thus: native gel or EMSA.
For assay [15], the target named is cc-del6 G29C (Saccharomyces cerevisiae | human). As to the kind of experiment: cross-linking.
The target in assay [16] is cc-del0 (cc-C99 18-99) (Saccharomyces cerevisiae | human). The assay can be described thus: native gel or EMSA.
Assay [17] concerns the target cc-del8 (cc-C99 26-99) (Saccharomyces cerevisiae | human). The assay can be described thus: native gel or EMSA.
The target in assay [18] is cc-del3 G29C (Saccharomyces cerevisiae | human). As to the kind of experiment: cross-linking.

On to cc-del7 G37C, for which the stoichiometry N in [1] was found to be 2.

cc-del5 (cc-C99 23-99) returned a stoichiometry N in assay [2] of 2. Substance cc-del7 G29C returned a stoichiometry N in [3] of 2. In assay [4], cc-del9 G29C displayed a stoichiometry N of 2. For the substance cc-del3 (cc-C99 21-99), the stoichiometry N in assay [5] was 2.

As to cc-del0 G29C, in assay [6], the stoichiometry N stood at 2. Substance cc-del2 (cc-C99 20-99) yielded a stoichiometry N in [7] of 2.

In turn, cc-del2 G29C registered a stoichiometry N in assay [8] of 2. For cc-del9 (cc-C99 27-99), in assay [9], the stoichiometry N came to 2. As to cc-del1 (cc-C99 19-99), the stoichiometry N in [10] amounted to 2. cc-del4 (cc-C99 22-99) displayed a stoichiometry N in assay [11] of 2. As to cc-del6 (cc-C99 24-99), the stoichiometry N in assay [12] is 2. Substance cc-del4 G37C showed a stoichiometry N in assay [13] of 2. In turn, cc-del7 (cc-C99 25-99) showed a stoichiometry N in assay [14] of 2. cc-del6 G29C came in with a stoichiometry N in assay [15] of 2.

In turn, cc-del0 (cc-C99 18-99) had a stoichiometry N in [16] of 2. For cc-del8 (cc-C99 26-99), in assay [17], the stoichiometry N worked out at 2.

The substance cc-del3 G29C showed a stoichiometry N in [18] of 2.
